# Experimental data: PMC3928310, “Model of a DNA-Protein Complex of the Architectural Monomeric Protein MC1 from Euryarchaea”
# T1: MC1 WT (Methanosarcina thermophila CHTI55, UniProt P12770 1-93)
# T1 sequence: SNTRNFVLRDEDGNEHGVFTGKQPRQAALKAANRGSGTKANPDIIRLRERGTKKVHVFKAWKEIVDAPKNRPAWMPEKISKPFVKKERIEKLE
# Legend:
# MC1 WT [1] = molecular target: T1, MC1 WT; test: NMR PRE; Mn2+ (EDTA-chelated probe); protein:DNA 1:1.2; EMSA: 10 mM Tris-HCl pH 7.5, 150 mM NaCl, 1 mM EDTA, 15 ug/ml BSA, 8% glycerol, 15 min at 20 C, 0.1 nM DNA, TBE gel; NMR PRE: 10 mM phosphate pH 6, 100 mM NaCl, 10% D2O; conditions: protein: recombinant; label: paramagnetic dT-EDTA-Mn2+; blunt
# MC1 WT [2] = molecular target: T1, MC1 WT; test: NMR chemical shift perturbation; EMSA: 10 mM Tris-HCl pH 7.5, 150 mM NaCl, 1 mM EDTA, 15 ug/ml BSA, 8% glycerol, 15 min at 20 C, 0.1 nM DNA, TBE gel; NMR PRE: 10 mM phosphate pH 6, 100 mM NaCl, 10% D2O; conditions: protein: recombinant; blunt
# MC1 WT [3] = molecular target: T1, MC1 WT; test: EMSA; EMSA: 10 mM Tris-HCl pH 7.5, 150 mM NaCl, 1 mM EDTA, 15 ug/ml BSA, 8% glycerol, 15 min at 20 C, 0.1 nM DNA, TBE gel; NMR PRE: 10 mM phosphate pH 6, 100 mM NaCl, 10% D2O; conditions: protein: recombinant; label: 5'-32P on one strand; blunt
binder,measurement,setting,value
"DNA1* (dsDNA, dT-EDTA (Mn2+) at the 5'-terminal T16 of strand 2) DNA 1: AAAAACACACACCCA DNA 2: TGGGTGTGTGTTTTT",binding result,MC1 WT [1],binds
15 bp NMR duplex (dsDNA) DNA 1: AAAAACACACACCCA DNA 2: TGGGTGTGTGTTTTT,binding result,MC1 WT [2],binds
26 bp EMSA duplex (dsDNA) DNA 1: GCCTCAAAAACACACACCCCCGACAG DNA 2: CTGTCGGGGGTGTGTGTTTTTGAGGC,Kd,MC1 WT [3],1.2 ± 0.1 nM
